# Primed or numbered codes have the meaning given here. [ ]: non-standard residue; d: D form. Ygp″ = O-(PEG8-amino)-tyrosine (O-(8x polyethylene glycol-amino)-tyrosine); Yn3″ = O-(PEG9-azido)-tyrosine (O-(9x polyethylene glycol-azido)-tyrosine); Ygp = O-(8x polyethylene glycol-amino)-tyrosine; Yn3 = O-(9x polyethylene glycol-azido)-tyrosine; hSer = N[C@@H](CCO)C(=O)O; Nle = CCCC[C@H](N)C(=O)O
# T1: IL-2 receptor βγ complex on pan T cells (human, UniProt P14784 27-551; P31785 23-369)
# T1 sequence (looked up) 1: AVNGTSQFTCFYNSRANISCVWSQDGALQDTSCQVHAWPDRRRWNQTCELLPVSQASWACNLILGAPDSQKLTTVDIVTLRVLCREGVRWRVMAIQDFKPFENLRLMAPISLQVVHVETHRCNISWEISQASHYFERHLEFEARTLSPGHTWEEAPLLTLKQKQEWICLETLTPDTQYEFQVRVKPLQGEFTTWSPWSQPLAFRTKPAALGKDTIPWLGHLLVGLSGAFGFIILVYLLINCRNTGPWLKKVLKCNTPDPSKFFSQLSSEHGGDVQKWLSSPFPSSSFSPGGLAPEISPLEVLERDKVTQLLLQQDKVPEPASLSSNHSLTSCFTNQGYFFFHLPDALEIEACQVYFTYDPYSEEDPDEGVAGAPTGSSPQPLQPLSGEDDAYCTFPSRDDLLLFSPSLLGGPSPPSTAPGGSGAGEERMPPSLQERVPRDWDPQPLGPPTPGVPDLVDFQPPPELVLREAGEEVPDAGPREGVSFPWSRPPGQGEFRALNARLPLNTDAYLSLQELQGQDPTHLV
# T1 sequence (looked up) 2: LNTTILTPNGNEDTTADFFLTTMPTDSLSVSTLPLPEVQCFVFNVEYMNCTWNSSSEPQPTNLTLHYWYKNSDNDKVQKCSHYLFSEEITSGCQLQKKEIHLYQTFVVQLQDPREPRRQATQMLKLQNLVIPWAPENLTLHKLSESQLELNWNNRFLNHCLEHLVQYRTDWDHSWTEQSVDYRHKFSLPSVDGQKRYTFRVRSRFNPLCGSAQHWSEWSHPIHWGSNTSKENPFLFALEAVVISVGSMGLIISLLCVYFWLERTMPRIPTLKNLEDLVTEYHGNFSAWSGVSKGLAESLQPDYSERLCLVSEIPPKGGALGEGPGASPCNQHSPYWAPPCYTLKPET
# Target: T1, IL-2 receptor βγ complex on pan T cells
# Assay: cell-based or functional assay
row,Binder,"Average EC50, pSTAT5 assay in pan T cells, MMP2 cleaved molecule [nM]"
1,"CMP-118, MMP2 cleaved (ligand, ends and bridges not checked; also: Lys23 side chain attached to cleavable peptide, MMP2-cleaved, remnant stays attached, cut site not given here) APTSSSTKKTQLQLEHLLLDLQKILNGINNYKNPKLTR[Nle]L[hSer][Yn3″]KF[Ygp″][Nle]PKKATELKHLQCLEEELKPLEEVL[hSer]LAQSKNFHLRPRDLISNINVIVLELKGSETTF[hSer]CEYADETATIVEFLNRWITFSQSIISTLT",0.9
2,"CMP-119, MMP2 cleaved (ligand, ends and bridges not checked; also: Lys23 side chain attached to cleavable peptide, MMP2-cleaved, remnant stays attached, cut site not given here) APTSSSTKKTQLQLEHLLLDLQKILNGINNYKNPKLTR[Nle]L[hSer][Yn3″]KF[Ygp″][Nle]PKKATELKHLQCLEEELKPLEEVL[hSer]LAQSKNFHLRPRDLISNINVIVLELKGSETTF[hSer]CEYADETATIVEFLNRWITFSQSIISTLT",0.63
3,"CMP-120, MMP2 cleaved (ligand, ends and bridges not checked; also: Lys23 side chain attached to cleavable peptide, MMP2-cleaved, remnant stays attached, cut site not given here) APTSSSTKKTQLQLEHLLLDLQKILNGINNYKNPKLTR[Nle]L[hSer][Yn3″]KF[Ygp″][Nle]PKKATELKHLQCLEEELKPLEEVL[hSer]LAQSKNFHLRPRDLISNINVIVLELKGSETTF[hSer]CEYADETATIVEFLNRWITFSQSIISTLT",0.7
4,"CMP-122, MMP2 cleaved (ligand, ends and bridges not checked; also: Lys23 side chain attached via PEG9 to cleavable peptide, MMP2-cleaved, remnant stays attached, cut site not given here) APTSSSTKKTQLQLEHLLLDLQKILNGINNYKNPKLTR[Nle]L[hSer][Yn3″]KF[Ygp″][Nle]PKKATELKHLQCLEEELKPLEEVL[hSer]LAQSKNFHLRPRDLISNINVIVLELKGSETTF[hSer]CEYADETATIVEFLNRWITFSQSIISTLT",3.55
5,"CMP-123, MMP2 cleaved (ligand, ends and bridges not checked; also: Lys23 side chain attached via PEG9 to cleavable peptide, MMP2-cleaved, remnant stays attached, cut site not given here) APTSSSTKKTQLQLEHLLLDLQKILNGINNYKNPKLTR[Nle]L[hSer][Yn3″]KF[Ygp″][Nle]PKKATELKHLQCLEEELKPLEEVL[hSer]LAQSKNFHLRPRDLISNINVIVLELKGSETTF[hSer]CEYADETATIVEFLNRWITFSQSIISTLT",2.93
6,"CMP-124, MMP2 cleaved (ligand, ends and bridges not checked; also: Lys23 side chain attached to cleavable peptide, MMP2-cleaved, remnant stays attached, cut site not given here) APTSSSTKKTQLQLEHLLLDLQKILNGINNYKNPKLTR[Nle]L[hSer][Yn3″]KF[Ygp″][Nle]PKKATELKHLQCLEEELKPLEEVL[hSer]LAQSKNFHLRPRDLISNINVIVLELKGSETTF[hSer]CEYADETATIVEFLNRWITFSQSIISTLT",2.07
7,"CMP-125, MMP2 cleaved (ligand, ends and bridges not checked; also: cleavable moiety on Lys23 side chain, not given here) APTSSSTKKTQLQLEHLLLDLQKILNGINNYKNPKLTR[Nle]L[hSer][Yn3″]KF[Ygp″][Nle]PKKATELKHLQCLEEELKPLEEVL[hSer]LAQSKNFHLRPRDLISNINVIVLELKGSETTF[hSer]CEYADETATIVEFLNRWITFSQSIISTLT",1.73
8,"CMP-126, MMP2 cleaved (ligand, ends and bridges not checked; also: Lys23 side chain attached to cleavable peptide, MMP2-cleaved, remnant stays attached, cut site not given here) APTSSSTKKTQLQLEHLLLDLQKILNGINNYKNPKLTR[Nle]L[hSer][Yn3″]KF[Ygp″][Nle]PKKATELKHLQCLEEELKPLEEVL[hSer]LAQSKNFHLRPRDLISNINVIVLELKGSETTF[hSer]CEYADETATIVEFLNRWITFSQSIISTLT",2.03
9,"CMP-128, MMP2 cleaved (ligand, ends and bridges not checked; also: Lys23 side chain attached via PEG9 to cleavable peptide, MMP2-cleaved, remnant stays attached, cut site not given here) APTSSSTKKTQLQLEHLLLDLQKILNGINNYKNPKLTR[Nle]L[hSer][Yn3″]KF[Ygp″][Nle]PKKATELKHLQCLEEELKPLEEVL[hSer]LAQSKNFHLRPRDLISNINVIVLELKGSETTF[hSer]CEYADETATIVEFLNRWITFSQSIISTLT",3.68
10,"CMP-127, MMP2 cleaved (ligand, ends and bridges not checked; also: Lys23 side chain attached via PEG9 to cleavable peptide, MMP2-cleaved, remnant stays attached, cut site not given here) APTSSSTKKTQLQLEHLLLDLQKILNGINNYKNPKLTR[Nle]L[hSer][Yn3″]KF[Ygp″][Nle]PKKATELKHLQCLEEELKPLEEVL[hSer]LAQSKNFHLRPRDLISNINVIVLELKGSETTF[hSer]CEYADETATIVEFLNRWITFSQSIISTLT",2.43
11,"CMP-129, MMP2 cleaved (ligand, ends and bridges not checked; also: Lys23 side chain attached via PEG9 to cleavable peptide, MMP2-cleaved, remnant stays attached, cut site not given here) APTSSSTKKTQLQLEHLLLDLQKILNGINNYKNPKLTR[Nle]L[hSer][Yn3″]KF[Ygp″][Nle]PKKATELKHLQCLEEELKPLEEVL[hSer]LAQSKNFHLRPRDLISNINVIVLELKGSETTF[hSer]CEYADETATIVEFLNRWITFSQSIISTLT",1.4
12,"CMP-141, MMP2 cleaved (ligand, not fully specified (residue 23); ends and bridges not checked; also: MMP2-cleaved, remnant of moiety on Lys23 side chain, not given here) APTSSSTKKTQLQLEHLLLDLQKILNGINNYKNPKLTR[Nle]L[hSer][Yn3]KF[Ygp][Nle]PKKATELKHLQCLEEELKPLEEVL[hSer]LAQSKNFHLRPRDLISNINVIVLELKGSETTF[hSer]CEYADETATIVEFLNRWITFSQSIISTLT",0.8
13,"CMP-142, MMP2 cleaved (ligand, not fully specified (residue 23); ends and bridges not checked; also: MMP2-cut remnant of cleavable moiety on Lys23 side chain, not given here) APTSSSTKKTQLQLEHLLLDLQKILNGINNYKNPKLTR[Nle]L[hSer][Yn3]KF[Ygp][Nle]PKKATELKHLQCLEEELKPLEEVL[hSer]LAQSKNFHLRPRDLISNINVIVLELKGSETTF[hSer]CEYADETATIVEFLNRWITFSQSIISTLT",0.56
14,"CMP-143, MMP2 cleaved (ligand, not fully specified (residue 23); ends and bridges not checked; also: MMP2-cut remnant of cleavable moiety on Lys23 side chain, not given here) APTSSSTKKTQLQLEHLLLDLQKILNGINNYKNPKLTR[Nle]L[hSer][Yn3]KF[Ygp][Nle]PKKATELKHLQCLEEELKPLEEVL[hSer]LAQSKNFHLRPRDLISNINVIVLELKGSETTF[hSer]CEYADETATIVEFLNRWITFSQSIISTLT",1.99
